This assay addresses T1, nucleocapsid protein (N) (vesicular stomatitis virus), P03521.
T1 chain: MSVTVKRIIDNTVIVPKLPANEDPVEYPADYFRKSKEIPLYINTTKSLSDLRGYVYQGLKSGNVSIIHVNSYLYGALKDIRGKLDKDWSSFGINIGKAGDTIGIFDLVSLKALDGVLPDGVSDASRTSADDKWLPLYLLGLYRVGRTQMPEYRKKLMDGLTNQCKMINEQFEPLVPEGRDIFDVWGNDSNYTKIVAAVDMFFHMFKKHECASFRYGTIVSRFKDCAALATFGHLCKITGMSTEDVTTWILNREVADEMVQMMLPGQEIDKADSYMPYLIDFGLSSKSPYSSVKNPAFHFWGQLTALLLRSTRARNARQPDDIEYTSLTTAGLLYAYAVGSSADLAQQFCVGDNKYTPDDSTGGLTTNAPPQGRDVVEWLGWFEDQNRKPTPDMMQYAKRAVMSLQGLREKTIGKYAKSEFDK
The experiment in a line: cryo-EM structure. As to conditions: remark: other sources report otherwise.

B1: matrix protein (M), P03519 1-229 (natural protein)
chain: MSSLKKILGLKGKGKKSKKLGIAPPPYEEDTSMEYAPSAPIDKSYFGVDEMDTYDPNQLRYEKFFFTVKMTVRSNRPFRTYSDVAAAVSHWDHMYIGMAGKRPFYKILAFLGSSNLKATPAVLADQGQPEYHTHCEGRAYLPHRMGKTPPMLNVPEHFRRPFNIGLYKGTIELTMTIYDDESLEAAPMIWDHFNSSKFSDFREKALMFGLIVEKKASGAWVLDSISHFK
As to B1, the stoichiometry N (commonly a count of units in the complex or per binding partner) worked out at 2.

Source of the values: paper PMC9549855.
